Measured values as given in article PMC2753885 (Biochemistry, 2009).
Read-outs that look alike come from different tables or passages of the source. Values belong to the binder of their own block, whether it stands above or below them.

Experiments:
Test in all cases: rapid-quench phosphotransfer kinetics
[1] = biological target: T1, YPD1, histidine-containing phosphotransfer (HPt) protein (S. cerevisiae, UniProt Q07688 1-167)
T1 sequence (looked up): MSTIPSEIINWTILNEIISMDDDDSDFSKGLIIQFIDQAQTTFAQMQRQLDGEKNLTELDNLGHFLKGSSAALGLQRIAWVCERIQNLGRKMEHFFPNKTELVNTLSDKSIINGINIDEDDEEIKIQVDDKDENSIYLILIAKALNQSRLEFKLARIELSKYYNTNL

[2] = biological target: T1, YPD1, histidine-containing …; remark: listed apart in the source
[3] = biological target: T1, YPD1, histidine-containing …; remark: listed apart in the source
[4] = biological target: T1, YPD1, histidine-containing …; remark: listed apart in the source
[5] = biological target: T1, YPD1, histidine-containing …; remark: listed apart in the source
[6] = biological target: T1, YPD1, histidine-containing …; remark: listed apart in the source
[7] = biological target: T1, YPD1, histidine-containing …; remark: listed apart in the source
[8] = biological target: T1, YPD1, histidine-containing …; remark: listed apart in the source
[9] = biological target: T1, YPD1, histidine-containing …; remark: listed apart in the source
[10] = biological target: T1, YPD1, histidine-containing …; remark: listed apart in the source
[11] = biological target: T2, SSK1 response regulator (receiver) domain, SSK1-R2 (S. cerevisiae, UniProt Q07084 495-712)
T2 sequence (looked up): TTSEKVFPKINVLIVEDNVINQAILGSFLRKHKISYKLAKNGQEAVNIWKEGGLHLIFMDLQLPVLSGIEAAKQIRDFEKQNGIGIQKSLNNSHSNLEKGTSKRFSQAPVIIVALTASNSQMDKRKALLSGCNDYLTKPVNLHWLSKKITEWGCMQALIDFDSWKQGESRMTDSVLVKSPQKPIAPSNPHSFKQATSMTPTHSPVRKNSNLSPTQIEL

[12] = biological target: T2, SSK1 response regulator (receiver) …; remark: listed apart in the source
[13] = biological target: T2, SSK1 response regulator (receiver) …; remark: listed apart in the source
[14] = biological target: T2, SSK1 response regulator (receiver) …; remark: listed apart in the source
[15] = biological target: T2, SSK1 response regulator (receiver) …; remark: listed apart in the source
[16] = biological target: T2, SSK1 response regulator (receiver) …; remark: listed apart in the source
[17] = biological target: T2, SSK1 response regulator (receiver) …; remark: listed apart in the source
[18] = biological target: T2, SSK1 response regulator (receiver) …; remark: listed apart in the source
[19] = biological target: T2, SSK1 response regulator (receiver) …; remark: listed apart in the source
[20] = biological target: T2, SSK1 response regulator (receiver) …; remark: listed apart in the source

- Kd [1]: 2700 nM
- Kd [2]: 2300 nM
- Kd [3]: 3.2 µM
- Kd [4]: 6.2 µM
- Kd [5]: 2600 nM
- Kd [6]: 10 µM
- Kd [7]: 4.6 µM
- Kd [8]: 2800 nM
- Kd [9]: 18 µM
- Kd [10]: 2300 nM
B1: phosphorylated SLN1 response regulator (receiver) domain, SLN1-R1∼P (domain or fragment, S. cerevisiae, UniProt P39928 1084-1220, looked up)
chain: NETSVKILVVEDNHVNQEVIKRMLNLEGIENIELACDGQEAFDKVKELTSKGENYNMIFMDVQMPKVDGLLSTKMIRRDLGYTSPIVALTAFADDSNIKECLESGMNGFLSKPIKRPKLKTILTEFCAAYQGKKNNK
modifications: phosphorylated (32P) by phosphotransfer from phospho-SLN1-HK; residue not printed for this domain

- Kd [11]: 4.3 µM
- Kd [12]: 2200 nM
- Kd [13]: 4.4 µM
- Kd [14]: 3000 nM
- Kd [15]: 1400 nM
- Kd [16]: 4 µM
- Kd [17]: 2100 nM
- Kd [18]: 3.8 µM
- Kd [19]: 11.5 µM
- Kd [20]: 4.3 µM
B2: phosphorylated YPD1, YPD1∼P (natural protein, S. cerevisiae, UniProt Q07688 1-167, looked up)
chain: T1 sequence (looked up)
modifications: phosphorylated (32P) by phosphotransfer from GST-SLN1-HK-R1; residue not given
